Consider three molecules from publication PMC4556315, “Structure of the JmjC domain-containing protein NO66 complexed with ribosomal protein Rpl8” (Acta Crystallographica Section D: Biological Crystallography, 2015).

Series [1] deals with the molecule itself. The experiment in a line: SEC; Superdex 200 10/300, 20 mM Tris-HCl pH 7.5, 200 mM NaCl; molecular weight estimated from the elution volume.
Series [2] addresses T1, C-terminal fragment of wild-type human NO66 (NO66^176–C) (human, UniProt Q9H6W3 176-641).
T1 construct: Cloned in pET-28a(+); Tetramer in the crystal; also called Nucleolar protein 66; wild-type NO66; source: E. coli Rosetta 2 (DE3), purified (Ni-NTA, tag removed by TEV protease, Superdex 200); not shown: His-SUMO, N-terminal, cleaved
In words: pull-down; GST-Rpl8 fragments immobilised on GST beads from E. coli lysate and washed, incubated with purified NO66^176–C at 277 K for 1 h; buffer B (50 mM HEPES pH 7.5, 300 mM NaCl, 0.1% Triton X-100); SDS-PAGE. As to conditions: both partners purified.

Series [3] addresses T1, C-terminal fragment of wild-type human …. The experiment in a line: crystal structure; NO66^176–C with Ni2+, NOG and Rpl8^204–224 peptide (protein:NOG:Ni2+:peptide 1:4:10:15); sitting drop, 295 K, 0.1 M imidazole pH 6.5, 0.5 M sodium acetate; 2.2 Å. The following applies: both partners purified.

B1: NO66^176–C mutant M3 (F450A/R452A/P455A) (enzyme, human, UniProt Q9H6W3 176-641, looked up)
chain: GGEPAWDSPLRRVLAELNRIPSSRRRAARLFEWLIAPMPPDHFYRRLWEREAVLVRRQDHTYYQGLFSTADLDSMLRNEEVQFGQHLDAARYINGRRETLNPPGRALPAAAWSLYQAGCSLRLLCPQAFSTTVWQFLAVLQEQFGSMAGSNVYLTPPNSQGFAPHYDDIEAFVLQLEGRKLWRVYRPRVPTEELALTSSPNFSQDDLGEPVLQTVLEPGDLLYFPRGFIHQAECQDGVHSLHLTLSTYQRNTWGDFLEAILPLAVQAAMEENVEARAGLARDFMDYMGAQHSDSKDPRRTAFMEKVRVLVARLGHFAPVDAVADQRAKDFIHDSLPPVLTDRERALSVYGLPIRWEAGEPVNVGAQLTTETEVHMLQDGIARLVGEGGHLFLYYTVENSRVYHLEEPKCLEIYPQQADAMELLLGSYPEFVRVGDLPCDSVEDQLSLATTLYDKGLLLTKMPLALN
notes: source: E. coli Rosetta 2 (DE3), purified (Ni-NTA, tag removed by TEV protease, Superdex 200); not shown: His-SUMO, N-terminal, cleaved
As for B1, the “stoichiometry N” value in series [1] is 2.

B2: GST-Rpl8 fragment 193–224 (domain or fragment)
chain: not shown
notes: Cloned in pGEX-6P-1
With B2, in series [2], the binding result is given as “binds”.

B3: Rpl8^204–224 peptide (human ribosomal protein L8) (peptide, UniProt P62917 204-224, looked up)
peptide: MNPVEHPFGGGNHQHIGKPST
notes: Only residues 212–222 are visible in the structure; also called Rpl8 peptide; source: synthetic peptide
For B3, in series [3], the binding result was “binds”.
